# B1: Hairpin Ribozyme (parent)
# chain: GUCCUCUUUCACGUGCGCGUGAAAGAGAGAAGUGAACCAGAGAAACACACGUUGUGGUAUAUUACCUGGUA
# Variants of: B1
# Experiment: self-cleavage, relative activity (ratio to wild type); higher = more cleavage; co-transcriptional
row,Variant,self-cleavage
1,GUCCUCUUUCACGUGCGCGUGAAAGAGAGAAGUGAACCAGAGAAACACACGUUUUGGUAUAUUACCUGGUG [G54U A71G],0.552
2,GUCCUCUUUCACGUGCGCGGCAAAGAGAGAAGUGAACCAGAGAAACACACGUUGUGGUAUAUUACCUGGUA [U20G G21C],0.75
3,GUCCUCUUUCACAUGCGCGUGAAGGAGAGAAGUGAACCAGAGAAACACACGUUGUGGUAUAUUACCUGGUA [G13A A24G],0.69
4,GUCCUCUUUCACGUGCGCGUGAAAGAGAGAAGUGAACCAGAGAAACACACGUUGAGGUACAUUACCUGGUA [U55A U60C],0.712
5,GUCCUCUUUCACGUGCGCGUGAAAGAGAGAAGUGAACCAUAGAAACACACUUUGUGGUAUAUUACCUGGUA [G40U G51U],0.179
6,GUCCUCUUUCACGCGCGCGUGAAAGAGAGAAGUGAACCAGAGAAAAACACGUUGUGGUAUAUUACCUGGUA [U14C C46A],0.174
7,GUCCUCUUUCACGUGCGCGUGAAGGAGAGAAGUGAACCAGAGAAACACACGUUGUGGUAUAUUACCUGGAA [A24G U70A],0.746
8,GUCCUCCUUCACGUGCGCGUGAAAGUGAGAAGUGAACCAGAGAAACACACGUUGUGGUAUAUUACCUGGUA [U7C A26U],0.176
9,GGCCUCUUUCACGUACGCGUGAAAGAGAGAAGUGAACCAGAGAAACACACGUUGUGGUAUAUUACCUGGUA [U2G G15A],0.55
10,GUCCUCUUUCACGUGCGCGUGAAAGAGAGAAGUGAACCAGAGAAACAUACGUUGUGGUAUAUUACCAGGUA [C48U U67A],0.119
11,GUCCUCUUUCACGUGCGCUUGAAAGAGAGAAGUGAACCAGAGGAACACACGUUGUGGUAUAUUACCUGGUA [G19U A43G],0.136
12,GUCCUCUUUCACGUGCGCGUGGAAGAGAGAAGUGAACCAGAGCAACACACGUUGUGGUAUAUUACCUGGUA [A22G A43C],0.158
13,GUCCUCUUUCACGUGCGCGUGAAAGAGAGAAGUGAACCCGAGAAACACACAUUGUGGUAUAUUACCUGGUA [A39C G51A],0.751
14,GUCCUCUUUCACGUGCUCGUGAAAGAGAGAAGUGAACCAGAGAAACACACGUUGUGGUACAUUACCUGGUA [G17U U60C],1.35
15,GUCCUCUUUCACGUCCGCGUGAACGAGAGAAGUGAACCAGAGAAACACACGUUGUGGUAUAUUACCUGGUA [G15C A24C],1.15
16,GUCCUCUUUCAGGUGCGCGUGAAAGAGAGACGUGAACCAGAGAAACACACGUUGUGGUAUAUUACCUGGUA [C12G A31C],0.174
17,GUCCUCUUUCACGUGCGCGUGAAAGAGAGAAGUGAACCAGAGAAACACACGUGGUGGUAUAUUACCUGGAA [U53G U70A],0.712
18,GUGCUCUUUCACGUGCGAGUGAAAGAGAGAAGUGAACCAGAGAAACACACGUUGUGGUAUAUUACCUGGUA [C3G C18A],0.34
19,GUCGUCUUUCACGUGCGCGUGAAAGAGAGACGUGAACCAGAGAAACACACGUUGUGGUAUAUUACCUGGUA [C4G A31C],0.176

row,Variant,self-cleavage
1,GUCCUCUUUCACGUGCGCGUGAAAGAGAGAAGUGAACCAGAGAAACACACGUUGUGGUAUAUGACCUGAUA [U63G G69A],0.102
2,GUCCUCUUUCACGUGCGCGUCAAAGAGAGAAGUGAACCAGAGAAACACACGUUGUAGUAUAUUACCUGGUA [G21C G56A],0.184
3,GUCCUCUUUCACGUGCGCGUGAAAGAGAGAAGUGAACCAGAGACACACACGUUGUGGUUUAUUACCUGGUA [A44C A59U],0.103
4,GUCCUCUUUCACGUGCGCGUGAAAGAGAGACGUGAACCAGAGAAACACACGUUUUGGUAUAUUACCUGGUA [A31C G54U],0.0998
5,GUCCUCUUUCACGUGCGCGUGAAAGAGAGAAGUAAACCAGAGAAACACACGUUGUGGUAUAUUACCUGGUU [G34A A71U],1.02
6,GUCCUCUUUCACGUGCGCGUGAAAGAGAGAAAUGAACCAGAGAAACACGCGUUGUGGUAUAUUACCUGGUA [G32A A49G],0.366
7,GUCCUCUUUCACGUGCGCGUGAAAGAGAGAAGUGAAACAGAGAAACACAGGUUGUGGUAUAUUACCUGGUA [C37A C50G],0.128
8,GUCCUCUUUCACCUGCGCGUGAAGGAGAGAAGUGAACCAGAGAAACACACGUUGUGGUAUAUUACCUGGUA [G13C A24G],0.537
9,GUCCUCUUUCACGUGCGCGUGAAAGAGAGAAUUGAACCAGAGAAACACACGUUGUGGUAUAUUACCUAGUA [G32U G68A],0.0877
10,GGCCUAUUUCACGUGCGCGUGAAAGAGAGAAGUGAACCAGAGAAACACACGUUGUGGUAUAUUACCUGGUA [U2G C6A],0.196
11,GUCCUCUUUCACGUGCGCGUGAAAGAGAGAAGUGAACCAGAGAAACACACGUGGUGGUAUAUUAUCUGGUA [U53G C65U],0.413
12,GUCCUCUUUCACGUGCGCGUGAAAGAGAGAAGUGAACCAGAUAAACACACGCUGUGGUAUAUUACCUGGUA [G42U U52C],0.4
13,GUCCUCUUGCACGUGCUCGUGAAAGAGAGAAGUGAACCAGAGAAACACACGUUGUGGUAUAUUACCUGGUA [U9G G17U],0.847
14,GUCCUCUUUCACGUGCGCGUGAAAGAGAGAAGUGAACCAGAGAAACACACGUUCCGGUAUAUUACCUGGUA [G54C U55C],0.245
15,GUCCUCUUCCACGUGCGCGUGAAAGAGAGAAGUGAACCAGAGAAACACACGUUGUGGUAUAUUCCCUGGUA [U9C A64C],0.201
16,GUCCUCUUUCACGUGCGCGUAAAAGAGAGAAGUGAACCAGAGAAACACACGUUGUGGUAUACUACCUGGUA [G21A U62C],0.199
17,GUCCUCUUUCACGUGCGCGUGAAGGAGAGAAGUGAACCAGAGAAACACACGUUCUGGUAUAUUACCUGGUA [A24G G54C],0.458
18,GUCCUCUUUCACGCGCGUGUGAAAGAGAGAAGUGAACCAGAGAAACACACGUUGUGGUAUAUUACCUGGUA [U14C C18U],0.868
19,GUCCUCUUUCACGUGCGCGUGAAAGAGAGAAGUGAACCAGAGCAACACACGUUGUGGUACAUUACCUGGUA [A43C U60C],0.196

# Reference: the RNAGym collection of RNA variant scans (doi:10.7554/elife.80360)
